The results in this text go back to paper PMC10992996.

This assay deals with Human canonical CRB1 (Crumbs homolog 1) (UniProt P82279). The experiment in a line: co-IP (FLAG-IP) and Western blot quantification. Particulars: co-transfected in HEK293T cells; three biological replicates; parent: est. 1.0; read off a plot. (In western blotting, separated proteins are transferred to a membrane and probed.)
Chain of Human canonical CRB1 (Crumbs homolog 1) (P82279 26-1406): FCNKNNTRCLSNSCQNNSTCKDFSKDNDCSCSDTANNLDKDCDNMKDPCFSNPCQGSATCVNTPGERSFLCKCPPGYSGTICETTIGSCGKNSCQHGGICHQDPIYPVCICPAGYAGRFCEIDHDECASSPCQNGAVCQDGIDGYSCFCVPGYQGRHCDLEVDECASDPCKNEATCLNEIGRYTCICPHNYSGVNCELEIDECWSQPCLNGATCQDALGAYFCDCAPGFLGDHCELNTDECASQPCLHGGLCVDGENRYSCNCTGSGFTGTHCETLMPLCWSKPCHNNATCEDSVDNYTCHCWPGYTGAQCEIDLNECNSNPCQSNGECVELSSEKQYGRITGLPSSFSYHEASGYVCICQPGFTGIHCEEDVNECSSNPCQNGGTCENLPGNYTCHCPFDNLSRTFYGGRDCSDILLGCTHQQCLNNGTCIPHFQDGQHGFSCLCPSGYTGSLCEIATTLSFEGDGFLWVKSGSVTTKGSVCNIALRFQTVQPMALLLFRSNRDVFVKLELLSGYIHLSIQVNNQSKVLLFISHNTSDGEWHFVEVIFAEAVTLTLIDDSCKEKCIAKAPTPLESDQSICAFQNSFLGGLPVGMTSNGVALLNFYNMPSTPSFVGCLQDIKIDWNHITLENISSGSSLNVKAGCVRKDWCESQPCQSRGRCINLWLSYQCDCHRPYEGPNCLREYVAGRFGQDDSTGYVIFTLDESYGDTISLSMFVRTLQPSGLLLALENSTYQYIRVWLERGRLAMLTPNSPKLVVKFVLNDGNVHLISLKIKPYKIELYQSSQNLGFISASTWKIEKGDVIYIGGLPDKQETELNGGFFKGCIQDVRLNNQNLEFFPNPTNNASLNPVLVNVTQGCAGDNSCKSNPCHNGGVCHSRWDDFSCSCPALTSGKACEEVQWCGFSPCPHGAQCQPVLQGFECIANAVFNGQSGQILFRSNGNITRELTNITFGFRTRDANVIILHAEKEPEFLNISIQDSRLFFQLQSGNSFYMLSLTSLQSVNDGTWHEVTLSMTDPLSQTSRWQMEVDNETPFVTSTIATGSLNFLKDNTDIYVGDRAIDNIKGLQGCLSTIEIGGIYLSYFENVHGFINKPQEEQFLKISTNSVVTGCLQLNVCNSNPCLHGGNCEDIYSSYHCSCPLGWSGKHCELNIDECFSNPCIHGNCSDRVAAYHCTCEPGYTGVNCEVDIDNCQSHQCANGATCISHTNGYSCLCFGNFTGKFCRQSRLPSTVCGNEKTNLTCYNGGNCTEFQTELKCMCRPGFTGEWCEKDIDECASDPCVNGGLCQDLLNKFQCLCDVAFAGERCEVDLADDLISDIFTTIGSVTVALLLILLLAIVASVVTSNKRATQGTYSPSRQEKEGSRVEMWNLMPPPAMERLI
For the substance “Human canonical CRB2 (Crumbs homolog 2) (from UniProt Q5IJ48-1) p.L777H”, the ratio to parent is 1.1.
Consider “Human canonical CRB2 (Crumbs homolog 2) (from UniProt Q5IJ48-1) p.R1115C”, for which the ratio to parent is 1.
As to “Human canonical CRB2 (Crumbs homolog 2) (from UniProt Q5IJ48-1) p.C1129S”, the ratio to parent was found to be 1.2.
Then “Human canonical CRB2 (Crumbs homolog 2) (from UniProt Q5IJ48-1) p.R628C”, with 0.97; and “Human canonical CRB2 (Crumbs homolog 2) (from UniProt Q5IJ48-1) p.W498C”, with 1.1; and “Human canonical CRB2 (Crumbs homolog 2) (from UniProt Q5IJ48-1) p.N800K”, with 1.1.
For “Human canonical CRB2 (Crumbs homolog 2) (from UniProt Q5IJ48-1) p.G839W”, the ratio to parent stood at 0.94.
Consider “Human canonical CRB2 (Crumbs homolog 2) (from UniProt Q5IJ48-1) p.R633W”, for which the ratio to parent is 0.9.
In the case of “Human canonical CRB2 (Crumbs homolog 2) (from UniProt Q5IJ48-1) p.C629S” it was 1.1; in that of “Human canonical CRB2 (Crumbs homolog 2) (from UniProt Q5IJ48-1) p.C620S”, 1.1.
